Laboratory results as given in PMC8913689.

Target: HA-metabotropic glutamate receptor 3, Q14832
Assay: AFM single-molecule force spectroscopy (AFM-SMFS); living WTT-CHO cells transfected with 1 µg of HA-GPCR vector, basal state, 37 °C; anti-HA antibody on the AFM tip pulls the HA-receptor out of the membrane; unfolding distances fitted by a Gaussian mixture (BIC) and each population assigned to an oligomeric state by the receptor's theoretical …
Conditions: remark: other sources report otherwise

B1: HA-metabotropic glutamate receptor 3, Q14832 23-879 (receptor)
chain: LGDHNFLRREIKIEGDLVLGGLFPINEKGTGTEECGRINEDRGIQRLEAMLFAIDEINKDDYLLPGVKLGVHILDTCSRDTYALEQSLEFVRASLTKVDEAEYMCPDGSYAIQENIPLLIAGVIGGSYSSVSIQVANLLRLFQIPQISYASTSAKLSDKSRYDYFARTVPPDFYQAKAMAEILRFFNWTYVSTVASEGDYGETGIEAFEQEARLRNICIATAEKVGRSNIRKSYDSVIRELLQKPNARVVVLFMRSDDSRELIAAASRANASFTWVASDGWGAQESIIKGSEHVAYGAITLELASQPVRQFDRYFQSLNPYNNHRNPWFRDFWEQKFQCSLQNKRNHRRVCDKHLAIDSSNYEQESKIMFVVNAVYAMAHALHKMQRTLCPNTTKLCDAMKILDGKKLYKDYLLKINFTAPFNPNKDADSIVKFDTFGDGMGRYNVFNFQNVGGKYSYLKVGHWAETLSLDVNSIHWSRNSVPTSQCSDPCAPNEMKNMQPGDVCCWICIPCEPYEYLADEFTCMDCGSGQWPTADLTGCYDLPEDYIRWEDAWAIGPVTIACLGFMCTCMVVTVFIKHNNTPLVKASGRELCYILLFGVGLSYCMTFFFIAKPSPVICALRRLGLGSSFAICYSALLTKTNCIARIFDGVKNGAQRPKFISPSSQVFICLGLILVQIVMVSVWLILEAPGTRRYTLAEKRETVILKCNVKDSSMLISLTYDVILVILCTVYAFKTRKCPENFNEAKFIGFTMYTTCIIWLAFLPIFYVTSSDYRVQTTTMCISVSLSGFVVLGCLFAPKVHIILFQPQKNVVTHRLHLNRFSVSGTGTTYSQSSASTYVPTVCNGREVLDSTTSSL
stoichiometry N: 2
